First the molecules themselves.
B1: hole Fc, wild-type hole (single Fc chain, hinge cysteines mutated to serine) (other)
chain: DKTHTSPPSPAPELLGGPSVFLFPPKPKDTLMISRTPEVTCVVVDVSHEDPEVKFNWYVDGVEVHNAKTKPREEQYNSTYRVVSVLTVLHQDWLNGKEYKCKVSNKALPAPIEKTISKAKGQPREPQVYTLPPSREEMTKNQVSLSCAVKGFYPSDIAVEWESNGQPENNYKTTPPVLDSDGSFFLVSKLTVDKSRWQQGNVFSCSVMHEALHNHYTQKSLSLSPGK
notes: IgG1 Fc with T366S, L368A, Y407V only, made in E. coli in the same manner as the knob/knob Fc; also called hole wild-type; hole/hole homodimer
B2: Knob F241S/F243R (knob Fc with F241S/F243R mutations) (other, name in EU numbering)
chain: B1 chain with F21S, F23R, S146W, A148L, V187Y
notes: Positions are EU numbers, not positions on the entry; also called F241S/F243R mutant knob

In assay [1] the target is B2. Nature of the assay: SPR (BioRad ProteOn), ligand hole wild-type immobilized on NHS activated sensor, analyte knob F241S/F243R 6.25-200 nM.
The target of assay [2] is T1, hole F241S/F243R (human, UniProt P0DOX5 223-449 = IgG part, F241S; F243R).
T1 construct: SPR ligand named only 'hole F241S/F243R'; Positions are EU numbers
The experiment in a line: SPR (BioRad ProteOn), ligand hole F241S/F243R immobilized on NHS activated sensor, analyte knob F241S/F243R 6.25-200 nM.

Positions count from the first letter of the chain named. In names and notes the source's numbering stands.

Here are results for two molecules from patent publication EP2670776B1 (F. Hoffmann-La Roche AG, dated 2018).

What is called Kd is the free concentration of one partner at which half of the binding sites on the other are occupied at equilibrium, for simple one-to-one binding. High values mean weaker binding, low ones tighter binding.

On to B1, for which, in assay [1], the Kd was below 10 nM.

Take B2: in assay [2], the Kd was below 10 nM.
